Patent publication US20060189528A1 (EVOGENIX, published 2006)
Positions count from the first letter of the chain named. Numbers in names are those of the source.

T1: RANKL (human, UniProt O14788 140-317, limits assumed)
T1 construct: also called Rank ligand
T1 sequence (looked up): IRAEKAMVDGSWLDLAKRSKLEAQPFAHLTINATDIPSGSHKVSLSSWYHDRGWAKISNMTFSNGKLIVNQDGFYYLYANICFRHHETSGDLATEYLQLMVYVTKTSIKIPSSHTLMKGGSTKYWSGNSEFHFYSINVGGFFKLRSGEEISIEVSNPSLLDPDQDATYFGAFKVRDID

B1: OVP I115M, R122G (Fc fusion)
chain: ETFPPKYLHYDEETSHQLLCDKCPPGTYLKQHCTAKWKTVCAPCPDHYYTDSWHTSDECLYCSPVCKELQYVKQECNRTHNRVCECKEGRYLEMEFCLKHGSCPPGFGVVQAGTPERNTVCKRCPDGFFSNETSSKAPCRKHTNCSVFGLLLTQKGNATHDNICSGNSESTQK
notes: Tested as C-terminal Fc-linked dimer with FLAG tag, from HEK 293 EBNA cells; signal peptide 1-21 processed; also called I115M plus: R122G; not shown: human Fc domain of vector pAPEX-3.Fc; C-terminal FLAG tag
B2: OVP I115M, F128S (Fc fusion)
chain: B1 chain with G101R, F107S
notes: Tested as C-terminal Fc-linked dimer with FLAG tag, from HEK 293 EBNA cells; signal peptide 1-21 processed; also called I115M plus: F128S; not shown: human Fc domain of vector pAPEX-3.Fc; C-terminal FLAG tag
B3: OVP I115M, F128I (Fc fusion)
chain: B1 chain with G101R, F107I
notes: Tested as C-terminal Fc-linked dimer with FLAG tag, from HEK 293 EBNA cells; signal peptide 1-21 processed; also called I115M plus: F128I; not shown: human Fc domain of vector pAPEX-3.Fc; C-terminal FLAG tag
B4: OVP I115R (Fc fusion)
chain: B1 chain with M94R, G101R
notes: Tested as C-terminal Fc-linked dimer with FLAG tag, from HEK 293 EBNA cells; signal peptide 1-21 processed; not shown: human Fc domain of vector pAPEX-3.Fc; C-terminal FLAG tag
B5: OVP I115G (Fc fusion)
chain: B1 chain with M94G, G101R
notes: as for B4
B6: OVP I115N (Fc fusion)
chain: B1 chain with M94N, G101R
notes: as for B4
B7: OVP I115M, F128L (Fc fusion)
chain: B1 chain with G101R, F107L
notes: Tested as C-terminal Fc-linked dimer with FLAG tag, from HEK 293 EBNA cells; signal peptide 1-21 processed; also called I115M plus: F128L; not shown: human Fc domain of vector pAPEX-3.Fc; C-terminal FLAG tag
B8: OVP N102D (Fc fusion)
chain: B1 chain with N81D, M94I, G101R
notes: as for B4
B9: OVP I115T, K51R (Fc fusion)
chain: B1 chain with K30R, M94T, G101R
notes: as for B4
B10: OVP I115K (Fc fusion)
chain: B1 chain with M94K, G101R
notes: as for B4
B11: OVP I115A (Fc fusion)
chain: B1 chain with M94A, G101R
notes: as for B4
B12: OVP I115T, K51R, R111H (Fc fusion)
chain: B1 chain with K30R, R90H, M94T, G101R
notes: as for B4
B13: OVP I115M, L40S (Fc fusion)
chain: B1 chain with L19S, G101R
notes: Tested as C-terminal Fc-linked dimer with FLAG tag, from HEK 293 EBNA cells; signal peptide 1-21 processed; also called R23; not shown: human Fc domain of vector pAPEX-3.Fc; C-terminal FLAG tag
B14: OVP I115M, F128A (Fc fusion)
chain: B1 chain with G101R, F107A
notes: Tested as C-terminal Fc-linked dimer with FLAG tag, from HEK 293 EBNA cells; signal peptide 1-21 processed; also called I115M plus: F128A; not shown: human Fc domain of vector pAPEX-3.Fc; C-terminal FLAG tag
B15: OVP I115Y (Fc fusion)
chain: B1 chain with M94Y, G101R
notes: as for B4
B16: OVP I115M, R122Q (Fc fusion)
chain: B1 chain with G101Q
notes: Tested as C-terminal Fc-linked dimer with FLAG tag, from HEK 293 EBNA cells; signal peptide 1-21 processed; also called I115M plus: R122Q; not shown: human Fc domain of vector pAPEX-3.Fc; C-terminal FLAG tag
B17: OVP I115M, R122S (Fc fusion)
chain: B1 chain with G101S
notes: Tested as C-terminal Fc-linked dimer with FLAG tag, from HEK 293 EBNA cells; signal peptide 1-21 processed; also called I115M plus: R122S; not shown: human Fc domain of vector pAPEX-3.Fc; C-terminal FLAG tag
B18: OVP I115V (Fc fusion)
chain: B1 chain with M94V, G101R
notes: as for B4
B19: OVP I115M (Fc fusion)
chain: B1 chain with G101R
notes: Ribosome display selected; tested as C-terminal Fc-linked dimer with FLAG tag, from HEK 293 EBNA cells; signal peptide 1-21 processed; also called 1R17; not shown: human Fc domain of vector pAPEX-3.Fc; C-terminal FLAG tag
B20: OVP I115L (Fc fusion)
chain: B1 chain with M94L, G101R
notes: as for B4
B21: OVP I115D (Fc fusion)
chain: B1 chain with M94D, G101R
notes: as for B4
B22: OVP I115T, K51R, S167G (Fc fusion)
chain: B1 chain with K30R, M94T, G101R, S146G
notes: as for B4
B23: OVP I115M, F128T (Fc fusion)
chain: B1 chain with G101R, F107T
notes: Tested as C-terminal Fc-linked dimer with FLAG tag, from HEK 293 EBNA cells; signal peptide 1-21 processed; also called I115M plus: F128T; not shown: human Fc domain of vector pAPEX-3.Fc; C-terminal FLAG tag
B24: OVP I115W (Fc fusion)
chain: B1 chain with M94W, G101R
notes: as for B4
B25: OVP I115M, R122E (Fc fusion)
chain: B1 chain with G101E
notes: Tested as C-terminal Fc-linked dimer with FLAG tag, from HEK 293 EBNA cells; signal peptide 1-21 processed; also called I115M plus: R122E; not shown: human Fc domain of vector pAPEX-3.Fc; C-terminal FLAG tag
B26: OVP I115M, N139D (Fc fusion)
chain: B1 chain with G101R, N118D
notes: as for B4
B27: OVP I115E (Fc fusion)
chain: B1 chain with M94E, G101R
notes: as for B4
B28: OVP I115M, R122D (Fc fusion)
chain: B1 chain with G101D
notes: Tested as C-terminal Fc-linked dimer with FLAG tag, from HEK 293 EBNA cells; signal peptide 1-21 processed; also called I115M plus: R122D; not shown: human Fc domain of vector pAPEX-3.Fc; C-terminal FLAG tag
B29: OVP I115S (Fc fusion)
chain: B1 chain with M94S, G101R
notes: as for B4
B30: OVP I115M, R122N (Fc fusion)
chain: B1 chain with G101N
notes: Tested as C-terminal Fc-linked dimer with FLAG tag, from HEK 293 EBNA cells; signal peptide 1-21 processed; also called I115M plus: R122N; not shown: human Fc domain of vector pAPEX-3.Fc; C-terminal FLAG tag

Target: T1, RANKL
Test: ELISA on coated RANKL, Fc-linked dimers; EC50 ratio to OPG(22-194).Fc wt; printed without parentheses
Protocol: (§1) Purified mammalian-expressed OVP proteins are tested for binding to RANKL and TRAIL by ELISA. Wells are coated with RANKL at 5 μg/mL or TRAIL at 10 μg/mL in PBS O/N at 4° C., rinsed with PBS, blocked with 0.5% casein in PBS at room temp for 2 h, then rinsed again with PBS. Concentrations of OVPs to be tested are normalised to around 10 nM and then 50 μL applied to the antigen-coated wells in serial doubling dilutions over 6-7 wells for 1 h. […] All washes in between binding incubations are 3 times in PBS/0.05% Tween, then 3 times with PBS. Detection of bound OVPs is achieved with incubation of 50 μL anti-FLAG at […] for 20 min then 50 μL goat anti-mouse-peroxidase conjugate (BioRad) at 1:1500 for 20 min. TMB is used as enzyme substrate and then binding signal is measured at A_{450 nm}.

Binder | RANKL fold change cf wt
B1 | 1 fold
B2 | 1 fold

Target: T2, TRAIL (human, UniProt P50591 114-281)
T2 construct: also called TNF-related apoptosis inducing ligand; recombinant human TRAIL (R&D Systems)
T2 sequence (P50591 114-281 limits assumed): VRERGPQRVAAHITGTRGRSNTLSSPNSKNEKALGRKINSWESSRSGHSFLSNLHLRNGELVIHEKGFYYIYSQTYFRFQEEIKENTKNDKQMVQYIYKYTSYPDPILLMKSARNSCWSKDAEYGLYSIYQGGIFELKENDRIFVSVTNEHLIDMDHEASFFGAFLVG
Test: ELISA on coated TRAIL, Fc-linked dimers; EC50 ratio to OPG(22-194).Fc wt; reduction in binding (higher EC50); # by extrapolation
Protocol: as §1

Binder | TRAIL fold change cf wt
B3 | 250 fold
B4 | 50 fold
B5 | > 125 fold
B6 | 390 fold
B7 | 250 fold

Target: T2, TRAIL
Test: ELISA on coated TRAIL, Fc-linked dimers; EC50 ratio to OPG(22-194).Fc wt; printed in parentheses (reduction in binding, higher EC50)
Protocol: as §1

Binder | TRAIL fold change cf wt
B8 | 1 fold
B9 | 0.8 fold

Target: T2, TRAIL
Test: ELISA on coated TRAIL, Fc-linked dimer
Protocol: as §1

Binder | binding result
B10 | no binding

Target: T1, RANKL
Test: ELISA on coated RANKL, Fc-linked dimers; EC50 ratio to OPG(22-194).Fc wt; increase in binding (lower EC50)
Protocol: as §1

Binder | RANKL fold change cf wt
B11 | 2.25 fold
B8 | 1.1 fold
B12 | 1.5 fold
B13 | 1.1 fold
B14 | 1.2 fold
B5 | 2.1 fold
B15 | 1.1 fold
B16 | 2.5 fold
B17 | 1.5 fold
B18 | 1.5 fold
B19 | 1.2 fold
B20 | 1.75 fold
B21 | 1.5 fold
B7 | 1.2 fold
B22 | 1.5 fold

Target: T2, TRAIL
Test: ELISA on coated TRAIL, Fc-linked dimers; EC50 ratio to OPG(22-194).Fc wt; reduction in binding (higher EC50)
Protocol: as §1

Binder | TRAIL fold change cf wt
B11 | 2.5 fold
B12 | 7.5 fold
B13 | > 250 fold
B14 | 2 fold
B23 | 7 fold
B15 | 3 fold
B24 | 5 fold
B25 | > 250 fold
B26 | 60 fold
B1 | 12.5 fold
B27 | > 250 fold
B16 | 3 fold
B17 | 3.5 fold
B18 | 4 fold
B28 | 23 fold
B2 | 50 fold
B19 | 25 fold
B20 | 4.3 fold
B29 | 3.1 fold
B21 | > 125 fold
B30 | > 250 fold
B22 | 15 fold

Target: T1, RANKL
Test: ELISA on coated RANKL, Fc-linked dimers; EC50 ratio to OPG(22-194).Fc wt; reduction in binding (higher EC50)
Protocol: as §1

Binder | RANKL fold change cf wt
B10 | 60 fold
B3 | 2.1 fold
B23 | 3.3 fold
B4 | 2.3 fold
B24 | 1.4 fold
B25 | 1.2 fold
B26 | 1.75 fold
B27 | 2.25 fold
B6 | 1.1 fold
B28 | 6 fold
B9 | 1.75 fold
B29 | 1.4 fold
B30 | 1.1 fold
